# Data published in US20260242478A1 (published 2026).
# Where no end group is shown, it is not given here.
# B1: Phage-2771 (peptide)
# peptide: QMHWCMPPWMCEGI
# modifications: cysteine pairing not given here; also: fused to pIII, displayed on bacteriophage
# B2: Phage-2773 (peptide)
# peptide: VPKWCTPSWMCASN
# modifications: cysteine pairing not given here; also: fused to pIII, displayed on bacteriophage
# B3: Phage-2646 (peptide)
# peptide: QPKWCTPDWMCTGI
# modifications: cysteine pairing not given here; also: displayed on phage as pIII fusion, fusion junction and sequence not given here
# notes: Clonal phage of the Peptide-180 library, tested as crude phage supernatant; not shown: pIII filament protein of the bacteriophage
# B4: Phage-2647 (peptide)
# peptide: LVKWCIPDWMCSLS
# modifications: cysteine pairing not given here; also: displayed on phage as pIII fusion, fusion junction and sequence not given here
# notes: as for B3
# B5: Phage-2648 (peptide)
# peptide: EYKWCTPIWMCQGN
# modifications: cysteine pairing not given here; also: displayed on phage as pIII fusion, fusion junction and sequence not given here
# notes: as for B3
# B6: Phage-2649 (peptide)
# peptide: TWKWCTPAWMCSVM
# modifications: cysteine pairing not given here; also: displayed on phage as pIII fusion, fusion junction and sequence not given here
# notes: as for B3
# Biological target: T1, PSMA Fab (006 PSMA Fab)
# T1 construct: also called Anti-PSMA Fab; anti-PSMA Fab
# Assay: clonal phage ELISA on captured PSMA Fab, wells pre-incubated with PSMA antigen as competitor, anti-M13 HRP detection;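 note: crude clonal phage supernatants added, with no intervening wash, to wells preincubated with PSMA antigen in blocking buffer, incubated briefly, then washed before detecting bound phage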
# Procedure: (§1) Clonal phage were harvested as crude supernatants and screened via standard ELISAs. […] Prior to the addition of clonal phage. wells were incubated with blocking buffer and PSMA antigen or blocking buffer alone. Without washing or aspirating, clonal phage supernatants were then added to the wells and incubated for a short time. Wells were then washed followed by detection of bound phage using a horse radish conjugated anti-M13 antibody.
row,Binder,"Phage binding ELISA signal, Anti-PSMA Fab with PSMA antigen"
1,GNSWCTPQWMCTGF [Phage-2740],0.0596
2,MSKWCVPTWMCQWQ [Phage-2741],0.0979
3,DIKRCTPAWMCSWM [Phage-2742],0.0807
4,IMKWCTPTWMCEMG [Phage-2743],0.122
5,FDKWCTPPWMCKVF [Phage-2744],0.143
6,TNKLCIPTWMCSGF [Phage-2745],0.0715
7,VVKMCKPLWMCGIS [Phage-2746],0.0564
8,SEKWCTPAWMCGDM [Phage-2747],0.0842
9,DWKWCIPAWMCSQD [Phage-2748],0.0645
10,GNLWCSPPWMCFGM [Phage-2749],0.0732
11,DVKWCKPRWMCNRD [Phage-2750],0.0701
12,EDIWCIPSWMCGVI [Phage-2751],0.0663
13,ETSWCRPTWMCEGM [Phage-2752],0.0587
14,ANHWCIPSWMCTEV [Phage-2753],0.162
15,APQWCIPPWMCHDQ [Phage-2754],0.0708
16,DPKWCTPSWMCDWR [Phage-2755],0.0821

# Biological target: T2, PSMA Fab (biotinylated (site not stated))
# T2 construct: Biotinylated PSMA Fab captured on neutravidin plates in the phage ELISA; also called Anti-PSMA Fab; 006 PSMA Fab
# Assay: phage ELISA, biotinylated PSMA Fab on neutravidin plate, anti-M13-HRP detection, blocking buffer alone
row,Binder,"Phage binding ELISA signal, Anti-PSMA Fab"
1,DVKWCIPPWMCPSF [Phage-2650],0.944
2,LQNWCVPAWMCELM [Phage-2651],0.941
3,SNHLCTPPWMCYGF [Phage-2652],0.939
4,ETKWCIPVWMCEHK [Phage-2653],0.934
5,HEKWCTPPWMCELI [Phage-2654],0.929
6,FVNMCKPAWMCSLL [Phage-2655],0.923
7,AIKWCIPAWMCAQA (cysteine pairing not given here; also: displayed on phage as pIII fusion) [Phage-2656],0.92
8,LQKWCIPAWMCSST [Phage-2657],0.92
9,MPKWCTPQWMCEMY [Phage-2658],0.92
10,GEHWCTPAWMCSVM [Phage-2659],0.919
11,VEKWCRPSWMCQQV [Phage-2660],0.914
12,APKWCTPSWMCQQV [Phage-2661],0.908
13,DYKWCTPPWMCLVD [Phage-2662],0.904
14,VVKWCTPAWMCSLN [Phage-2663],0.902
15,APHLCIPKWMCNPS [Phage-2664],0.899
16,EFKWCIPMWMCQAN [Phage-2665],0.896

# Biological target: T3, PSMA Fab
# T3 construct: Biotinylated PSMA Fab captured on neutravidin coated plates in the phage ELISA; also called Anti-PSMA Fab; 006 PSMA Fab
# Assay: clonal phage ELISA on biotinylated PSMA Fab captured on neutravidin plates, anti-M13 HRP detection;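 note: crude clonal phage supernatants tested, before phage were added, wells were pretreated with PSMA antigen in blocking buffer or with blocking buffer only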
# Procedure: as §1
row,Binder,"Phage binding ELISA signal, Anti-PSMA Fab"
1,B1,0.65
2,VQAWCVPQWMCNQF [Phage-2772],0.646
3,B2,0.643
4,SMKMCTPPWMCEFA [Phage-2774],0.641

# Biological target: T1, PSMA Fab (006 PSMA Fab)
# Assay: as above
# Procedure: as §1
row,Binder,"Phage binding ELISA signal, Anti-PSMA Fab"
1,GNSWCTPQWMCTGF [Phage-2740],0.712
2,MSKWCVPTWMCQWQ [Phage-2741],0.711
3,DIKRCTPAWMCSWM [Phage-2742],0.709
4,IMKWCTPTWMCEMG [Phage-2743],0.708
5,FDKWCTPPWMCKVF [Phage-2744],0.708
6,TNKLCIPTWMCSGF [Phage-2745],0.703
7,VVKMCKPLWMCGIS [Phage-2746],0.701
8,SEKWCTPAWMCGDM [Phage-2747],0.7
9,DWKWCIPAWMCSQD [Phage-2748],0.697
10,GNLWCSPPWMCFGM [Phage-2749],0.696
11,DVKWCKPRWMCNRD [Phage-2750],0.695
12,EDIWCIPSWMCGVI [Phage-2751],0.694
13,ETSWCRPTWMCEGM [Phage-2752],0.693
14,ANHWCIPSWMCTEV [Phage-2753],0.692
15,APQWCIPPWMCHDQ [Phage-2754],0.691
16,DPKWCTPSWMCDWR [Phage-2755],0.69

# Biological target: T4, PSMA Fab (006 PSMA Fab) (biotinylated (site not given))
# T4 construct: also called Anti-PSMA Fab; anti-PSMA Fab
# Assay: clonal phage ELISA; biotinylated PSMA Fab on neutravidin plate, wells pre-incubated with PSMA antigen as competitor; anti-M13 HRP detection;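 note: crude clonal phage supernatants added to antigen-treated wells without a wash, incubated briefly, then bound phage read out via horse radish–conjugated anti-M13 antibody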
row,Binder,"Phage binding ELISA signal, Anti-PSMA Fab with PSMA antigen"
1,B3,0.105
2,B4,0.0865
3,B5,0.0626
4,B6,0.113

# Biological target: T3, PSMA Fab
# Assay: clonal phage ELISA on captured PSMA Fab pre-incubated with PSMA antigen as competitor, anti-M13 HRP detection;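 note: crude clonal phage supernatants tested by ELISA, wells first treated with blocking buffer plus PSMA antigen, bound phage read out via HRP-linked anti-M13 antibody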
# Procedure: as §1
row,Binder,"phage binding ELISA signal (Anti-PSMA Fab, PSMA antigen present)"
1,B1,0.0705
2,VQAWCVPQWMCNQF [Phage-2772],0.0631
3,B2,0.0608
4,SMKMCTPPWMCEFA [Phage-2774],0.0631

# Biological target: T4, PSMA Fab (006 PSMA Fab)
# Assay: clonal phage ELISA; biotinylated PSMA Fab on neutravidin plate, blocking buffer alone; anti-M13 HRP detection;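 note: crude clonal phage supernatants added without washing to wells pretreated with blocking buffer with or without PSMA antigen, short incubation, then washed before detecting bound phage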
# Procedure: as §1
row,Binder,"Phage binding ELISA signal, Anti-PSMA Fab"
1,B3,0.954
2,B4,0.952
3,B5,0.95
4,B6,0.947

# Biological target: T2, PSMA Fab
# Assay: phage ELISA, biotinylated PSMA Fab on neutravidin plate, anti-M13-HRP detection, competitor PSMA antigen pre-incubated
# Procedure: as §1
row,Binder,"Phage binding ELISA signal, Anti-PSMA Fab with PSMA antigen"
1,DVKWCIPPWMCPSF [Phage-2650],0.0771
2,LQNWCVPAWMCELM [Phage-2651],0.068
3,SNHLCTPPWMCYGF [Phage-2652],0.0665
4,ETKWCIPVWMCEHK [Phage-2653],0.122
5,HEKWCTPPWMCELI [Phage-2654],0.0717
6,FVNMCKPAWMCSLL [Phage-2655],0.0949
7,AIKWCIPAWMCAQA (cysteine pairing not given here; also: displayed on phage as pIII fusion) [Phage-2656],0.0786
8,LQKWCIPAWMCSST [Phage-2657],0.0717
9,MPKWCTPQWMCEMY [Phage-2658],0.0641
10,GEHWCTPAWMCSVM [Phage-2659],0.68
11,VEKWCRPSWMCQQV [Phage-2660],0.09
12,APKWCTPSWMCQQV [Phage-2661],0.121
13,DYKWCTPPWMCLVD [Phage-2662],0.083
14,VVKWCTPAWMCSLN [Phage-2663],0.0846
15,APHLCIPKWMCNPS [Phage-2664],0.105
16,EFKWCIPMWMCQAN [Phage-2665],0.0753
